Data: patent publication US6555105 (GlaxoSmithKline, dated 2003)

Biological target: T1, recombinant CC-CKR1 receptor (UniProt P32246 1-355, limits assumed)
T1 construct: whole, on cells; The assay used either THP-1 cells or COS cells expressing recombinant CC-CKR1; also called CCKR1 receptors
T1 sequence (looked up): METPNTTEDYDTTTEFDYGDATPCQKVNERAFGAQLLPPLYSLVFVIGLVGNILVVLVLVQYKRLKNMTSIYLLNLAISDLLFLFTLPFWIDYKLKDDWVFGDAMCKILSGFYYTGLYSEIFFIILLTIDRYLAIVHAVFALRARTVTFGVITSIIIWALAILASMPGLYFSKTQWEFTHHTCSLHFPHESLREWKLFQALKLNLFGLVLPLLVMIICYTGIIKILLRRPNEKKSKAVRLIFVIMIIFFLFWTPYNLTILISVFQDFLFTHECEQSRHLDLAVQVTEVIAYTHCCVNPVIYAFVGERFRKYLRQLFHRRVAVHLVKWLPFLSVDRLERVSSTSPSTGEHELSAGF
Test: radioligand competition on cells (THP-1 or COS expressing CC-CKR1), [125I]RANTES tracer, competitor Met-RANTES
Experimental: The competition assay was carried out in 96 well multi-screen filter-phase (Millipore, MADV N6500) which had been pretreated for 2 h with 50 mM HEPES buffer, pH 7.2 containing 1 mM CaCl_2, 5 mM MgCl_2, and 0.5% BSA, (binding buffer). The assay was performed using either THP-1 cells or COS cells expressing the recombinant CC-CKR1 receptor (Neote, K., DiGregorio, Mak, J. Y., Horuk, R., and Schall, T. J., (1993) Molecular cloning, functional expression, and signalling characteristics of a C—C chemokine receptor, *Cell* 72 415–425; Gao, J. L., et al, *J. Exp. Med.* 177 1421–7 (1993)). Each well contained 10^5 cells in a volume of 150 μl of binding buffer containing 0.4 nM [I^125]Mip-1a or 0.4 nM [I^125]RANTES (new England Nuclear, Nex 277) and varying concentrations of competing Met-RANTES. Assays were performed in triplicate. After 90 min incubation at 4° C., the cells were washed 4 times with 200 μl ice cold binding buffer containing 0.5 M NaCl which was removed by aspiration. The filters were dried, 3.5 ml Ultima Gold Scintillation fluid added (Packard) and counted on a Beckman LS5000 counter.

binding result: binds
B1: methionylated RANTES (ligand)
chain: MSPYSSDTTPCCFAYIARPLPRAHIKEYFYTSGKCSNPAVVFVTRKNRQVCANPEKKWVREYINSLEMS
notes: also called Met-RANTES
